Patent publication US20020034726A1, “Eosinophil chemotactic factor” (priority 1998, published 2002)
Entries after “also recorded” stand apart in the source; their conditions may differ.

Assays:
Assay type in all cases: cell-based
[1] = test system: human eosinophils; test: eosinophil chemotaxis (ECA) test, bilayered 48-well chamber
Procedure: (§1) The eosinophil chemotaxis was measured by following the method described in the reference (Lymphokine Cytokine Res. 10, 481-486, 1991; Lymphokine Cytokine Res. 11, 331-338, 1992). Specifically, eosinophils of CD16- were purified from the peripheral blood of normal volunteers by discontinuous density-gradient method using Percoll (Pharmacia, Picataway, N.J.), and the following anti-CD16 immunoglobulin (DAKO. A. S, Glostrup, Denmark) magnetic antibody treatment. Purity of the obtained eosinophils was 97% or higher, and living cells were 95%. Chemotaxis was measured using a bilayered 48-well plate (NeuroProbe, Cabin John, Md.) mediated through a polyvinylpyrrolidone-free membrane (a standard pore size of 5 micron). Chemotactic factors in various concentration, and 0.5×10^6 to 1×10^6 cells/ml human eosinophils were placed on the lower and upper layers, respectively, and incubated under 5% carbon dioxide at 37° C. for 1 to 2 hours. Then the membrane separating two plates was removed, and eosinophils were stained by placing them in DiffQuick stain (Baxter Health Care, McGaw Park, Ill.) to count the eosinophils which were passing through the membrane under a microscope. All assays were conducted three times.
As a positive control, human C5a (Sigma, Saint Louis, Mo.), IL-5 (Genzyme, Cambridge, Mass.), RANTES (Genzyme), and eotaxin-1 (Seikagaku-Kogyo, Tokyo) were used. […]

[2] = test system: neutrophils; test: neutrophil chemotaxis test; conditions: PBS negative control, IL-8 positive control; FIG. 6
[3] = test system: lymphocytes; test: lymphocyte chemotaxis test; conditions: membrane pore size 3 μm; PBS negative control, lymphotactin positive control; FIG. 7
Procedure: as §1
(§2) The similar experiments were conducted in regard to lymphocytes (FIG. 7) and monocytes (FIG. 8). Pore sizes of the membranes are 3 and 8 μm, respectively. […]

[4] = test system: monocytes; test: monocyte chemotaxis test; conditions: membrane pore size 8 μm, PBS negative control, MCP-1 positive control, FIG. 8
Procedure: as §1, §2

B1: ecalectin: eosinophil-specific chemotactic factor, 323 amino acid protein of SEQ ID NO: 2, similar to galectin-9; recombinant from Sf9 insect cells (protein, listed as Homo sapiens)
chain: MAFSSSQAPYLSPAVPFSGTIQGGLQDGLQITVNGTVLSSSGTRFAVNFQTGFSGNDIAFHFNPRFEDGGYVVCNTRQNGSWGPEERKTHMPFQKGMPFDLCFLVQSSDFKVMVNGILFVQYFHRVPFHRVDTISVNGSVQLSYISFQPPGVWPANPAPITQTVIHTVQSAPGQMFSTPAIPPMMYPHPAYPMPFITTILGGLYPSKSILLSGTVLPSAQRFHINLCSGNHIAFHLNPRFDENAVVRNTQIDNSWGSEERSLPRKMPFVRGQSFSVWILCEAHCLKVAVDGQHLFEYYHRLRNLPTINRLEVGGDIQLTHVQT
- specificity of chemotactic activity ([1]; eosinophils versus neutrophils, lymphocytes, monocytes, FIGS. 5-8): specific to eosinophils
- eosinophil chemotactic activity ([1]; recombinant ecalectin purified from Sf9 insect cells, stained eosinophils passing through 5 micron membrane, FIG. 5): strong eosinophil chemotactic activity concentration-dependently; also recorded: concentration-dependent eosinophil chemotactic activity
- neutrophil chemotactic activity [2]: no or little neutrophil chemotactic activity; also recorded: low or absent; also recorded: does not cause neutrophil chemotaxis
- lymphocyte chemotactic activity [3]: no chemotactic activity; also recorded: low or absent; also recorded: does not cause lymphocyte chemotaxis
- monocyte chemotactic activity [4]: no chemotactic activity; also recorded: low or absent
- monocyte chemotactic activity ([4]; listed as recombinant ecalectin): does not cause monocyte chemotaxis
